Common to all, as to assay: cell-based or functional assay
Test [1] deals with HIV-1 Env of pseudovirus CNE52 (HIV-1).
Test [2] concerns the target HIV-1 Env of pseudovirus RHPA4259.7 (HIV-1).
For test [3], the target named is HIV-1 Env of pseudovirus 0260.v5.c36 (HIV-1).
For test [4], the target named is HIV-1 Env of pseudovirus BB1012-11.TC21 (HIV-1).
Test [5] concerns the target HIV-1 Env of pseudovirus SC422661.8 (HIV-1).
The target of test [6] is HIV-1 Env of pseudovirus Du172.17 (HIV-1).

B1: MS-86 (antibody)
VH: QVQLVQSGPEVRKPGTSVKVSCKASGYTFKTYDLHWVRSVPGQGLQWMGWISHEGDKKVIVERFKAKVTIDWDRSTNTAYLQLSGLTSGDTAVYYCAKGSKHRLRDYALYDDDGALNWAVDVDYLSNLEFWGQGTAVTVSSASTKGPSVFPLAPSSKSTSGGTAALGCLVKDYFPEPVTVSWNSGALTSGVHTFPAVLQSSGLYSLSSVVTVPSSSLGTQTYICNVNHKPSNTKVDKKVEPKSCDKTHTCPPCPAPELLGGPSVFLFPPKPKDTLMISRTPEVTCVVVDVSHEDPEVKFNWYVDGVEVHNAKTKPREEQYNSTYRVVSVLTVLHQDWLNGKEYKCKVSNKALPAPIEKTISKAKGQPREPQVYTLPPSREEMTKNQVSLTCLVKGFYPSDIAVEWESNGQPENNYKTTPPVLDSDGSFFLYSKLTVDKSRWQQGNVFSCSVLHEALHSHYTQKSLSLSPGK
VL: DFVLTQSPHSLSVTPGESASISCKSSHSLIHGDRNNYLAWYVQKPGRSPQLLIYLASSRASGVPDRFSGSGSDKDFTLKISRVETEDVGTYYCMQGRESPWTFGQGTKVDIKRTVAAPSVFIFPPSDEQLKSGTASVVCLLNNFYPREAKVQWKVDNALQSGNSQESVTEQDSKDSTYSLSSTLTLSKADYEKHKVYACEVTHQGLSSPVTKSFNRGEC
Regarding B1, the “neutralization IC50” value in test [1] stood at 1.46 µg/mL; in test [2] it was 0.305 µg/mL; in test [3], 0.036 µg/mL; in test [4], 0.048 µg/mL; in test [5], 1.2 µg/mL; in test [6], 4.94 µg/mL. Moreover, the “neutralization IC80” value in test [1] is 13.3 µg/mL; in test [2], 1.1 µg/mL; in test [3], 0.191 µg/mL; in test [4], 0.159 µg/mL; in test [5], above 25 µg/mL; in test [6], 18.8 µg/mL.

B2: MS-79 (antibody, V domains shown)
VH: QVQLVQSGPEVRKPGTSVKVSCKAPGNTLKTYDLHWVRSVPGQGLQWMGWISHEGDKKVIVERFKAKVTITWDRSTNTAYLQLSGLTSGDTAVYYCAKGSKHRLRDYALYDDDGALNWAVDVDYLSNLEFWGQGTAVTVSS
VL: DFVLTQSPHSLSVTPGESASISCKSSHSLIHGDRNNYLAWYVQKPGRSPQLLIYLASSRASGVPDRFSGSGSDKDFTLKISRVETEDVGTYYCMQGRESPWTFGQGTKVDIKR
As for B2, the “neutralization IC50” value was found to be 2.42 µg/mL in test [1]; 0.221 µg/mL in test [2]; 0.028 µg/mL in test [3]; 0.019 µg/mL in test [4]; 0.587 µg/mL in test [5]; 7.28 µg/mL in test [6]. Also, the “neutralization IC80” value is above 25 µg/mL in test [1]; 0.792 µg/mL in test [2]; 0.159 µg/mL in test [3]; 0.08 µg/mL in test [4]; above 25 µg/mL in test [5]; above 25 µg/mL in test [6].

B3: MS-82 (antibody, V domains shown)
VH: QVQLVQSGPEVRKPGTSVKVSCKAPGNTLKTYDLHWVRSVPGQGLQWMGWISHEGDKKVIVERFKAKVTIDWDRSTNTAYLQLSGLRSGDTAVYYCAKGSKHRLRDYALYDDDGALNWAVDVDYLSNLEFWGQGTAVTVSS
VL: DFVLTQSPHSLSVTPGESASISCKSSHSLIHGDRNNYLAWYVQKPGRSPQLLIYLASSRASGVPDRFSGSGSDKDFTLKISRVETEDVGTYYCMQGRESPWTFGQGTKVDIKR
For B3, the “neutralization IC50” value in test [1] is 0.206 µg/mL; in test [2], 0.192 µg/mL; in test [3], 0.016 µg/mL; in test [4], 0.023 µg/mL; in test [5], 0.387 µg/mL; in test [6] it was 1.88 µg/mL. The “neutralization IC80” value in test [1] was 1.18 µg/mL; in test [2], 0.672 µg/mL; in test [3], 0.051 µg/mL; in test [4], 0.108 µg/mL; in test [5] it was 3.29 µg/mL; in test [6], 7 µg/mL.

B4: MS-80 (antibody, V domains shown)
VH: QVQLVQSGPEVRKPGTSVKVSCKAPGNTLKTYDLHWVRSVPGQGLQWMGWISHEGDKKVIVERFKAKVTIDRDRSTNTAYLQLSGLTSGDTAVYYCAKGSKHRLRDYALYDDDGALNWAVDVDYLSNLEFWGQGTAVTVSS
VL: DFVLTQSPHSLSVTPGESASISCKSSHSLIHGDRNNYLAWYVQKPGRSPQLLIYLASSRASGVPDRFSGSGSDKDFTLKISRVETEDVGTYYCMQGRESPWTFGQGTKVDIKR
On to B4, for which the “neutralization IC50” value in test [1] came out at 5.25 µg/mL; in test [2], 0.267 µg/mL; in test [3], 0.041 µg/mL; in test [4], 0.02 µg/mL; in test [5] it was 0.451 µg/mL; in test [6], 15.2 µg/mL. Moreover, the “neutralization IC80” value was above 25 µg/mL in test [1]; 1.24 µg/mL in test [2]; 0.321 µg/mL in test [3]; 0.086 µg/mL in test [4]; above 25 µg/mL in test [5]; above 25 µg/mL in test [6].

B5: MS-87 (antibody, V domains shown)
VH: QVQLVQSGPEVRKPGTSVKVSCKAPGNTLKTYDLHWVRSVPGQGLQWMGWISHEGDKKVIVERFKAKVTITRDRSTNTAYLQLSGLTSGDTAVYYCAKGSKHRLRDYALYDDDGALNWAVDVDYLSNLEFWGQGTAVTVSS
VL: DFVLTQSPHSLSVTPGESASISCKSSHSLIHGDRNNYLAWYVQKPGRSPQLLIYLASSRASGVPDRFSGSGSDKDFTLKISRVETEDVGTYYCMQGRESPWTFGQGTKVDIKR
B5: the “neutralization IC50” value in test [1] was 2.69 µg/mL; in test [2], 0.294 µg/mL; in test [3] it was 0.114 µg/mL; in test [4], 0.023 µg/mL; in test [5], 0.711 µg/mL; in test [6], above 25 µg/mL. In addition, the “neutralization IC80” value in test [1] is above 25 µg/mL; in test [2] it was 1.09 µg/mL; in test [3] it was 1.01 µg/mL; in test [4], 0.102 µg/mL; in test [5], 13.9 µg/mL; in test [6], above 25 µg/mL.

B6: MS-81 (antibody, V domains shown)
VH: QVQLVQSGPEVRKPGTSVKVSCKAPGNTLKTYDLHWVRSVPGQGLQWMGWISHEGDKKVIVERFKAKVTIDWDRSTNTAYLELSGLTSGDTAVYYCAKGSKHRLRDYALYDDDGALNWAVDVDYLSNLEFWGQGTAVTVSS
VL: DFVLTQSPHSLSVTPGESASISCKSSHSLIHGDRNNYLAWYVQKPGRSPQLLIYLASSRASGVPDRFSGSGSDKDFTLKISRVETEDVGTYYCMQGRESPWTFGQGTKVDIKR
B6: the “neutralization IC50” value came out at 0.212 µg/mL in test [1]; 0.202 µg/mL in test [2]; 0.02 µg/mL in test [3]; 0.024 µg/mL in test [4]; 0.418 µg/mL in test [5]; 1.65 µg/mL in test [6]. The “neutralization IC80” value in test [1] worked out at 1.8 µg/mL; in test [2], 0.897 µg/mL; in test [3], 0.075 µg/mL; in test [4], 0.102 µg/mL; in test [5], 4.25 µg/mL; in test [6] it was 6.37 µg/mL.

B7: MS-83 (antibody, V domains shown)
VH: QVQLVQSGPEVRKPGTSVKVSCKAPGNTLKTYDLHWVRSVPGQGLQWMGWISHEGDKKVIVERFKAKVTIDWDRSTNTAYLQLSGLTSGDTAVYYCAKGSKHRLRDYALYDDEGALNWAVDVDYLSNLEFWGQGTAVTVSS
VL: DFVLTQSPHSLSVTPGESASISCKSSHSLIHGDRNNYLAWYVQKPGRSPQLLIYLASSRASGVPDRFSGSGSDKDFTLKISRVETEDVGTYYCMQGRESPWTFGQGTKVDIKR
For B7, the “neutralization IC50” value amounted to 0.135 µg/mL in test [1]; 0.15 µg/mL in test [2]; 0.023 µg/mL in test [3]; 0.018 µg/mL in test [4]; 0.267 µg/mL in test [5]; 1.47 µg/mL in test [6]. The “neutralization IC80” value was 1.04 µg/mL in test [1]; 0.663 µg/mL in test [2]; 0.087 µg/mL in test [3]; 0.082 µg/mL in test [4]; 2.11 µg/mL in test [5]; 7.4 µg/mL in test [6].

B8: MS-84 (antibody, V domains shown)
VH: QVQLVQSGPEVRKPGTSVKVSCKAPGNTLKTYDLHWVRSVPGQGLQWMGWISHEGDKKVIVERFKAKVTIDWDRSTNTAYLQLSGLRSGDTAVYYCAKGSKHRLRDYALYDDDGALNWAVDVDYLSNLEFWGQGTAVTVSS
VL: DFVLTQSPLSLPVTPGEPASISCKSSHSLIHGDRNNYLAWYVQKPGQSPQLLIYLASSRASGVPDRFSGSGSDKDFTLKISRVEAEDVGVYYCMQGRESPWTFGQGTKVDIKR
As to B8, the “neutralization IC50” value worked out at 0.092 µg/mL in test [1]; 0.175 µg/mL in test [2]; 0.016 µg/mL in test [3]; 0.019 µg/mL in test [4]; 0.192 µg/mL in test [5]; 1.64 µg/mL in test [6]. Further, the “neutralization IC80” value in test [1] worked out at 0.83 µg/mL; in test [2], 0.773 µg/mL; in test [3] it was 0.062 µg/mL; in test [4], 0.085 µg/mL; in test [5], 1.37 µg/mL; in test [6] it was 6.55 µg/mL.

B9: MS-85 (antibody, V domains shown)
VH: QVQLVQSGPEVRKPGTSVKVSCKAPGNTLKTYDLHWVRSVPGQGLQWMGWISHEGDKKVIVERFKAKVTIDWDRSTNTAYLQLSGLTSGDTAVYYCAKGSKHRLRDYALYDDDGALNWAVDVDYLSNLEFWGQGTAVTVSS
VL: DIVLTQSPHSLSVTPGESASISCKSSHSLIHGDRNNYLAWYVQKPGRSPQLLIYLASSRASGVPDRFSGSGSGTDFTLKISRVETEDVGTYYCMQGRESPWTFGQGTKVDIKR
As for B9, the “neutralization IC50” value was found to be 0.341 µg/mL in test [1]; 0.173 µg/mL in test [2]; 0.019 µg/mL in test [3]; 0.028 µg/mL in test [4]; 0.54 µg/mL in test [5]; 2.23 µg/mL in test [6]. Moreover, the “neutralization IC80” value in test [1] amounted to 4.71 µg/mL; in test [2] it was 0.794 µg/mL; in test [3], 0.059 µg/mL; in test [4], 0.124 µg/mL; in test [5], 7.04 µg/mL; in test [6], 9.53 µg/mL.
